The values that follow come from FireProtDB (doi:10.1073/pnas.0804396105).

First the molecules themselves.
B1: Adenosine receptor A2a, P29274 (parent)
chain: MPIMGSSVYITVELAIAVLAILGNVLVCWAVWLNSNLQNVTNYFVVSLAAADIAVGVLAIPFAITISTGFCAACHGCLFIACFVLVLTQSSIFSLLAIAIDRYIAIRIPLRYNGLVTGTRAKGIIAICWVLSFAIGLTPMLGWNNCGQPKEGKNHSQGCGEGQVACLFEDVVPMNYMVYFNFFACVLVPLLLMLGVYLRIFLAARRQLKQMESQPLPGERARSTLQKEVHAAKSLAIIVGLFALCWLPLHIINCFTFFCPDCSHAPLWLMYLAIVLSHTNSVVNPFIYAYRIREFRQTFRKIIRSHVLRQQEPFKAAGTSARVLAAHGSDGEQVSLRLNGHPPGVWANGSAPHPERRPNGYALGLVSGGSAQESQGNTGLPDVELLSHELKGVCPEPPGLDDPLAQDGAGVS

Variants of B1 are the subject of this data set. The note with it: Homo sapiens; pH 7.4; Thermal; Activity; Tris 50 mM; NaCl 0.4 M; structure 4UHR; whole UniProt chain shown.

Values joined by “and” are separate entries in the source; they are usually repeats but may differ in a detail not shown here. Identical values can stand only once.

Usually Tm stands for the temperature at the midpoint of the melting transition. Regarding MPIMGSSVYITVELAIAVLAILGNVLVCWAVWLNSNLQNVTNYFVVSLAAADILVGVLAIPFAITISTGFCAACAGCLFIACFVLVLTQSSIFSLLAIAIDRYIAIRIPLRYNGLVTGTRAKGIIAICWVLSFAIGLTPMLGWNNCGQPKEGKNHSQGCGEGQVACLFEDVVPMNYMVYFNFFACVLVPLLLMLGVYLRIFLAARRQLKQMESQPLPGERARSTLQKEVHAAKSLAIIAGLFALCWLPLHIINCFTFFCPDCSHAPLWLMYLAIVLSHTNSVVNPFIYAYRIREFRQTFRKIIRSHVLRQQEPFKAAGTSARVLAAHGSDGEQVSLRLNGHPPGVWANGSAPHPERRPNGYALGLVSGGSAQESQGNTGLPDVELLSHELKGVCPEPPGLDDPLAQDGAGVS [A54L H75A V239A], the Tm stood at 37 °C and the “change of melting temperature, mutant - wild type (higher = more stable)” value (“change of melting temperature, mutant” for short) worked out at 6 °C.

As for MPIMGSSVYITVELAIAVLAILGNVLVCWAVWLNSNLQNVTNYFVVSLAAADILVGVLAIPFAITISTGFCAACHGCLFIACFVLVLAQSSIFSLLAIAIDRYIAIRIPLRYNGLVTGTRAKGIIAICWVLSFAIGLTPMLGWNNCGQPKEGKNHSQGCGEGQVACLFEDVVPMNYMVYFNFFACVLVPLLLMLGVYLRIFLAARRQLKQMESQPLPGERARSTLQKEVHAAKSLAIIAGLFALCWLPLHIINCFTFFCPDCSHAPLWLMYLAIVLSHTNSVVNPFIYAYRIREFRQTFRKIIRSHVLRQQEPFKAAGTSARVLAAHGSDGEQVSLRLNGHPPGVWANGSAPHPERRPNGYALGLVSGGSAQESQGNTGLPDVELLSHELKGVCPEPPGLDDPLAQDGAGVS [A54L T88A V239A], the Tm stood at 46 °C and the “change of melting temperature, mutant” value was found to be 14 °C.

Turning to MPIMGSSVYITVELAIAVLAILGNVLVCWAVWLNSNLQNVTNYFVVSLAAADILVGVLAIPFAITISTGFCAACHGCLFIACFVLVLTQSSIFSLLAIAIDRYIAIRIPLRYNGLVTGTRAKGIIAICWVLSFAIGLTPMLGWNNCGQPKEGKNHSQGCGEGQVACLFEDVVPMNYMVYFNFFACVLVPLLLMLGVYLRIFLAARRQLKQMESQPLPGERARSTLQKEVHAAKSAAIIVGLFALCWLPLHIINCFTFFCPDCSHAPLWLMYLAIVLSHTNSVVNPFIYAYRIREFRQTFRKIIRSHVLRQQEPFKAAGTSARVLAAHGSDGEQVSLRLNGHPPGVWANGSAPHPERRPNGYALGLVSGGSAQESQGNTGLPDVELLSHELKGVCPEPPGLDDPLAQDGAGVS [A54L L235A], the Tm is 42 °C and 45 °C; the “change of melting temperature, mutant” value is 11 °C and 13 °C.

Turning to MPIMGSSVYITVELAIAVLAILGNVLVCWAVWLNSNLQNVTNYFVVSLAAADILVGVLAIPFAITISTGFCAACHGCLFIACFVLVLTQSSIFSLLAIAIDRYIAIRIPLRYNGLVTGTRAKGIIAICWVLSFAIGLTPMLGWNNCGQPKEGKNHSQGCGEGQVACLFEDVVPMNYMVYFNFFACVLVPLLLMLGVYLRIFLALRRQLKQMESQPLPGERARSTLQKEVHAAKSLAIIVGLFALCWLPLHIINCFTFFCPDCSHAPLWLMYLAIVLSHTNSVVNPFIYAYRIREFRQTFRKIIRSHVLRQQEPFKAAGTSARVLAAHGSDGEQVSLRLNGHPPGVWANGSAPHPERRPNGYALGLVSGGSAQESQGNTGLPDVELLSHELKGVCPEPPGLDDPLAQDGAGVS [A54L A204L], the Tm is 33 °C and the “change of melting temperature, mutant” value is 2 °C.

For the variant MPIMGSSVYITVELAIAVLAILGNVLVCWAVWLNSNLQNVTNYFVVSLAAADILVGVLAIPFAITISTGFCAACHGCLFIACFVLVLAQSSIFSLLAIAIDRYIAIRIPLRYNGLVTGTRAKGIIAICWVLSFAIGLTPMLGWNNCGQPKEGKNHSQGCGEGQVACLFEDVVPMNYMVYFNFFACVLVPLLLMLGVYLRIFLAARRQLKQMESQPLPGERARSTLQKEVHAAKSLAIIVGLFALCWLPLHIINCFTFFCPDCSHAPLWLMYLAIVLSHTNSVVNPFIYAYRIREFRQTFRKIIRSHVLRQQEPFKAAGTSARVLAAHGSDGEQVSLRLNGHPPGVWANGSAPHPERRPNGYALGLVSGGSAQESQGNTGLPDVELLSHELKGVCPEPPGLDDPLAQDGAGVS [A54L T88A], the Tm came out at 39 °C and the “change of melting temperature, mutant” value was 8 °C.

As for MPIMGSSVYITVELAIAVLAILGNVLVCWAVWLNSNLQNVTNYFVVSLAAADILVGVLAIPFAITISTGFCAACHGCLFIACFVLVLTQSSIFSLLAIAIDRYIAIRIPLRYNGLVTGTRAAGIIAICWVLSFAIGLTPMLGWNNCGQPKEGKNHSQGCGEGQVACLFEDVVPMNYMVYFNFFACVLVPLLLMLGVYLRIFLAARRQLKQMESQPLPGERARSTLQKEVHAAKSLAIIVGLFALCWLPLHIINCFTFFCPDCSHAPLWLMYLAIVLSHTNSVVNPFIYAYRIREFRQTFRKIIRSHVLRQQEPFKAAGTSARVLAAHGSDGEQVSLRLNGHPPGVWANGSAPHPERRPNGYALGLVSGGSAQESQGNTGLPDVELLSHELKGVCPEPPGLDDPLAQDGAGVS [A54L K122A], the Tm was 35 °C and 40 °C; the “change of melting temperature, mutant” value is 4 °C and 8 °C.

As to MPIMGSSVYITVELAIAVLAILGNVLVCWAVWLNSNLQNVTNYFVVSLAAADILVGVLAIPFAITISTGFCAACHGCLFIACFVLVLTQSSIFSLLAIAIDRYIAIRIPLRYNGLVTGTRAAGIIAICWVLSFAIGLTPMLGWNNCGQPKEGKNHSQGCGEGQVACLFEDVVPMNYMVYFNFFACVLVPLLLMLGVYLRIFLAARRQLKQMESQPLPGERARSTLQKEVHAAKSAAIIVGLFALCWLPLHIINCFTFFCPDCSHAPLWLMYLAIVLSHTNSVVNPFIYAYRIREFRQTFRKIIRSHVLRQQEPFKAAGTSARVLAAHGSDGEQVSLRLNGHPPGVWANGSAPHPERRPNGYALGLVSGGSAQESQGNTGLPDVELLSHELKGVCPEPPGLDDPLAQDGAGVS [A54L K122A L235A], the midpoint of thermal melting (Tm) was 47 °C and 48 °C; the “change of melting temperature, mutant” value amounted to 16 °C.

With MPIMGSSVYITVELAIAVLAILGNVLVCWAVWLNSNLQNVTNYFVVSLAAADILVGVLAIPFAITISTGFCAACAGCLFIACFVLVLAQSSIFSLLAIAIDRYIAIRIPLRYNGLVTGTRAKGIIAICWVLSFAIGLTPMLGWNNCGQPKEGKNHSQGCGEGQVACLFEDVVPMNYMVYFNFFACVLVPLLLMLGVYLRIFLAARRQLKQMESQPLPGERARSTLQKEVHAAKSLAIIAGLFALCWLPLHIINCFTFFCPDCSHAPLWLMYLAIVLSHTNSVVNPFIYAYRIREFRQTFRKIIRSHVLRQQEPFKAAGTSARVLAAHGSDGEQVSLRLNGHPPGVWANGSAPHPERRPNGYALGLVSGGSAQESQGNTGLPDVELLSHELKGVCPEPPGLDDPLAQDGAGVS [A54L H75A T88A V239A], the Tm is 40 °C and 44 °C; the “change of melting temperature, mutant” value was 9 °C and 12 °C.
